Results published in US8029979B2, “Method for determining the substrate specificity of an enzyme” (JPT Peptide Technologies GmbH, priority 2001, dated 2011).
BA1 = not defined here

Assays:
protein kinase A [1] = target: T1, protein kinase A (Bos taurus, UniProt P00517); experiment: Time-dependent incubation of various modified surfaces with protein kinase A (FIG. 3, Example 31); format: biochemical; details: protein kinase A 2 U/mL, incubated for the given time at 25° C.
T1 construct: purchased Sigma P26452 as printed
Protocol: (§1) FIG. 3. The peptide Leu-Arg-Arg-Ala-Ser-Leu-Gly-NH2, modified at the N-terminus with the dipeptide cysteinyl-β-alanine, was coupled to maleinimido-functionalised surfaces by a Michael addition (maleinimido-functionalised glass surface, Sigma, Silane-Prep™, S4651; as well as maleinimidobutyryl-β-alanine-functionalised, modified polypropylene membranes). The modified glass surfaces were first pre-incubated for 10 minutes using 20 mL of 100 μM ATP solution in 50 mM of sodium phosphate buffer pH 7.5. […] (Example 31). The phosphorylation of the corresponding peptides was detected using a FUJIFILM PhosphorImager. The signal intensity of the respective spot is given below the figures. […] FIG. 4. […] After incubation for 30 min at 25° C. the phosphorylation of the corresponding peptides was detected using a FUJIFILM PhosphorImager. […] After incubation for 30 min at 25° C. the phosphorylation of the corresponding peptides was detected using a FUJIFILM PhosphorImager. […]
After drying the glass surface the quantity of radioactive phosphate incorporated in the glass-surface-bound peptides was determined using a PhosphorImager system (FLA-3000, FUJIFILM) (see FIG. 3).

protein kinase A [2] = target: T1, protein kinase A; experiment: Incubation of modified glass surface with different concentrations of protein kinase A (FIG. 4, Example 25); format: biochemical; details: protein kinase A 1 U/mL or 10 U/mL, 30 min at 25° C.
Protocol: as §1
After drying the glass surface the quantity of radioactive phosphate incorporated in the glass-surface-bound peptides was determined using a PhosphorImager system (FLA-3000, FUJIFILM) (see FIG. 4).

Cys-BA1-Leu-Arg-Arg-Ala-Ser-Leu-Gly-NH2 ({Cys-BA1}-LRRASLG-NH2; reading uncertain; also: printed as Cys-BA1-Leu-Arg-Arg-Ala-Ser-Leu-Gly-NH2) [compound 85]
kinase-mediated incorporation of radioactivity into the substrate amino acid sequence (protein kinase A [1]; modified glass surfaces): clear time dependence | kinase-mediated phosphorylation signal on polypropylene (protein kinase A [1]; modified polypropylene surfaces): only non-specific binding of ATP or kinase to the peptides is measured | signal intensity for the purified amino acid sequence higher than that for the corresponding control amino acid sequence (protein kinase A [2]): approximately 300 times | signal intensity for the purified amino acid sequence higher than that for the synthesis product (protein kinase A [2]): 500%
